This assay addresses T1, Isu1, mature form (amino acids 35-165) (yeast, UniProt Q03020 35-165).
T1 sequence (looked up): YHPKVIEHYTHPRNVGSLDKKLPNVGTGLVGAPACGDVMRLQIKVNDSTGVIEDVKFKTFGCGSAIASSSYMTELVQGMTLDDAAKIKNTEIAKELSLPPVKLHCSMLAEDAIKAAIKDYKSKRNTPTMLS
Description: other fluorescence titration.

B1: Yfh1 (yeast frataxin), wild type, mature form (amino acids 52-174), holo form (natural protein, S. cerevisiae (yeast), UniProt Q07540 52-174, looked up)
chain: VESSTDGQVVPQEVLNLPLEKYHEEADDYLDHLLDSLEELSEAHPDCIPDVELSHGVMTLEIPAFGTYVINKQPPNKQIWLASPLSGPNRFDLLNGEWVSLRNGTKLTDILTEEVEKAISKSQ
Take B1: the binding result is recorded as “binds”.

(Values after article PMC2819628 (The Biochemical journal, 2010).)
